Measured values from US20050037432.

T1: Alpha-2-Macroglobulin
T1 chain: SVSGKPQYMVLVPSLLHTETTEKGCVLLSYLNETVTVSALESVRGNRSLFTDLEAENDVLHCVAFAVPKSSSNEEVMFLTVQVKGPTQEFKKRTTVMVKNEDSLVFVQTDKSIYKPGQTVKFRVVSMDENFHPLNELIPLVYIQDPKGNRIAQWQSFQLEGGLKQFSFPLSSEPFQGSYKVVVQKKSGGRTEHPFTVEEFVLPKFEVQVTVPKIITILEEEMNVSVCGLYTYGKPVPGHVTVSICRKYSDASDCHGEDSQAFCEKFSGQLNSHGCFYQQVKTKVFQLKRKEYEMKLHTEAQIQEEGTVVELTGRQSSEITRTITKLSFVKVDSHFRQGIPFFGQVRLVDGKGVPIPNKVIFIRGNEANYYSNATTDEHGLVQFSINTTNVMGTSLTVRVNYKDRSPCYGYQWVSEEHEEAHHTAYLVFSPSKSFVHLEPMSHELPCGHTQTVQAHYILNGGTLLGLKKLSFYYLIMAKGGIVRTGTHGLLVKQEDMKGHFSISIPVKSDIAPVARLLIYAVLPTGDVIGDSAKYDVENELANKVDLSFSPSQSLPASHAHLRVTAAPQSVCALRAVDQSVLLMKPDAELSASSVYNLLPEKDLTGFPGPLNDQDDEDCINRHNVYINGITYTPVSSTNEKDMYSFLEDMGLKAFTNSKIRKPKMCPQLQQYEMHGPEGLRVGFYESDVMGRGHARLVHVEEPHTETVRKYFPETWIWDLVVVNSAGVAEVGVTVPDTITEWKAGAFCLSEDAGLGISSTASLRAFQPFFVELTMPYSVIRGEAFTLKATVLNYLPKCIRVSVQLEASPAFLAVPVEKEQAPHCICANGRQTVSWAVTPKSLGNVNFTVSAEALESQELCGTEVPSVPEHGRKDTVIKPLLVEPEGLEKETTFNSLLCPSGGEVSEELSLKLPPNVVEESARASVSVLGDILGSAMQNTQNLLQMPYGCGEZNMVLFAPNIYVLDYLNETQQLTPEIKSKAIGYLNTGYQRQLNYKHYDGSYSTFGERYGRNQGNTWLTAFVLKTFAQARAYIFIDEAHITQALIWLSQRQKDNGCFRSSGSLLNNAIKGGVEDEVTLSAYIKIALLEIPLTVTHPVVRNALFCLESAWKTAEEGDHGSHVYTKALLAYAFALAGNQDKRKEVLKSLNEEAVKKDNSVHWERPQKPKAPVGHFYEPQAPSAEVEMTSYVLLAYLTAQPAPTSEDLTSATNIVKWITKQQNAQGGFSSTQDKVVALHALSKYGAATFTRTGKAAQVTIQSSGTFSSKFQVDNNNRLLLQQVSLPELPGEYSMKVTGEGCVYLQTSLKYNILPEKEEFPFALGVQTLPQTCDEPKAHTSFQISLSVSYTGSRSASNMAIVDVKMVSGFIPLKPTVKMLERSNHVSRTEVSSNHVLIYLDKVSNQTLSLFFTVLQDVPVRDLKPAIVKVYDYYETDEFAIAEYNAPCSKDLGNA

B1: ADAMTS-4 (protein)
chain: FASLSRFVETLVVADDKMAAFHGAGLKRYLLTVMAAAAKAFKHPSIRNPVSLVVTRLVILGSGEEGPQVGPSAAQTLRSFCAWQRGLNTPEDSDPDHFDTAILFTRQDLCGVSTCDTLGMADVGTVCDPARSCAIVEDDGLQSAFTAAHELGHVFNMLHDNSKPCISLNGPLSTSRHVMAPVMAHVDPEEPWSPCSARFITDFLDNGYGHCLLDKPEAPLHLPVTFPGKDYDADRQCQLTFGPDSRHCPQLPPPCAALWCSGHLNGHAMCQTKHSPWADGTPCGPAQACMGGRCLHMDQLQDFNIPQAGGWGPWGPWGDCSRTCGGGVQFSSRDCTRPVPRNGGKYCEGRRTRFRSCNTEDCPTGSALTFREEQCAAYNHRTDLFKSFPGPMDWVPRYTGVAPQDQCKLTCQAQALGYYYVLEPRVVDGTPCSPDSSSVCVQGRCIHAGCDRIIGSKKKFDKCMVCGGDGSGCSKQSGSFRKFRYGYNNVVTIPAGATHILVRQQGNPGHRSIYLALKLPDGSYALNGEYTLMPSPTDVVLPGAVSLRYSGATAASETLSGHGPLAQPLTLQVLVAGNPQDTRLRYSFFVPRPTPSTPRPTPQDWLHRRAQILEILRRRPWAGRK
B2: ADAMTS-5 (protein)
chain: SISRARQVELLLVADASMARLYGRGLQHYLLTLASIANRLYSHASIENHIRLAVVKVVVLGDKDKSLEVSKNAATTLKNFCKWQHQHNQLGDDHEEHYDAAILFTREDLCGHHSCDTLGMADVGTICSPERSCAVIEDDGLHAAFTVAHEIGHLLGLSHDDSKFCEETFGSTEDKRLMSSILTSIDASKPWSKCTSATITEFLDDGHGNCLLDLPRKQILGPEELPGQTYDATQQCNLTFGPEYSVCPGMDVCARLWCAVVRQGQMVCLTKKLPAVEGTPCGKGRICLQGKCVDKTKKKYYSTSSHGNWGSWGSWGQCSRSCGGGVQFAYRHCNNPAPRNNGRYCTGKRAIYRSCSLMPCPPNGKSFRHEQCEAKNGYQSDAKGVKTFVEWVPKYAGVLPADVCKLTCRAKGTGYYVVFSPKVTDGTECRLYSNSVCVRGKCVRTGCDGIIGSKLQYDKCGVCGGDNSSCTKIVGTFNKKSKGYTDVVRIPEGATHIKVRQFKAKDQTRFTAYLALKKKNGEYLINGKYMISTSETIIDINGTVMNYSGWSHRDDFLHGMGYSATKEILIVQILATDPTKPLDVRYSFFVPKKSTPKVNSVTSHGSNKVGSHTSQPQWVTGPWLACSRTCDTGWHTRTVQCQDGNRKLAKGCPLSQRPSAFKQCLLKKC

Biological target: T1, Alpha-2-Macroglobulin

Protein	generation of α2M neoepitopes on digestion (50 ng α2M, 100 ng enzyme, 37° C., 1-30 min)
B1	Both neoepitopes were generated as early as after 2 minutes of incubation, and increased over time, up to after 30 minutes of incubation
B2	Both neoepitopes were generated as early as after 2 minutes of incubation, and increased over time, up to after 30 minutes of incubation
